Measurements from the supplement of paper PMC7125110.
± gives the standard error. For some of these results: This sample holds only a part of the variants without activity.

B1: glmS ribozyme (parent)
chain: AUAAAAGCGCCAGAACUACAGAAAUGUAGUUGACGAGGAGGAGGUUUAUCGAAUUUUCGGCGGAUGCCUCCAAA

Key:
Conditions in all cases: with glucosamine-6-phosphate
glucosamine-6-phosphate [1] = variants of: B1; assay: kcat; higher = faster cleavage; RNA array
How it was run: (§1)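 Glucosamine-6-phosphate, from 40 μM to 10 mM in HEPES/KCl/Mg(OAc)2 buffer, was flowed over sequenced MiSeq chips carrying barcoded ribozyme variants transcribed in situ by E. coli RNA polymerase. A hybridised Cy3 probe tracked the variants at 37 °C as tiles were imaged over ~14 h. kobs, kcat and KM were obtained by fitting normalised per-tile medians to exponential decays and then applying weighted Michaelis–Menten fits across concentrations.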

glucosamine-6-phosphate [2] = variants of: B1; assay: self-cleavage kobs at 40 uM GlcN6P; higher = faster cleavage; RNA array
How it was run: as §1

glucosamine-6-phosphate [3] = variants of: B1; assay: self-cleavage kobs at 160 uM GlcN6P; higher = faster cleavage; RNA array
How it was run: as §1

glucosamine-6-phosphate [4] = variants of: B1; assay: KM; higher = weaker cofactor use; RNA array
How it was run: as §1

glucosamine-6-phosphate [5] = variants of: B1; assay: self-cleavage kobs at 2500 uM GlcN6P; higher = faster cleavage; RNA array
How it was run: as §1

glucosamine-6-phosphate [6] = variants of: B1; assay: self-cleavage kobs at 10000 uM GlcN6P; higher = faster cleavage; RNA array
How it was run: as §1

glucosamine-6-phosphate [7] = variants of: B1; assay: self-cleavage kobs at 640 uM GlcN6P; higher = faster cleavage; RNA array
How it was run: as §1

| Variant | kcat (glucosamine-6-phosphate [1]) | self-cleavage kobs at 40 uM GlcN6P (glucosamine-6-phosphate [2]) | self-cleavage kobs at 160 uM GlcN6P (glucosamine-6-phosphate [3]) | KM (glucosamine-6-phosphate [4]) | self-cleavage kobs at 2500 uM GlcN6P (glucosamine-6-phosphate [5]) | self-cleavage kobs at 10000 uM GlcN6P (glucosamine-6-phosphate [6]) | self-cleavage kobs at 640 uM GlcN6P (glucosamine-6-phosphate [7]) |
| --- | --- | --- | --- | --- | --- | --- | --- |
| AUAAAAGCGCCAGAUCUACAGAAAUGUAGUUGACGAGGAGGAGGUUUAUCGAAUUUUCUGCGGAUGCCUCCAAA [A15U G59U] | < 1e-05 s⁻¹ | < 1e-05 s⁻¹ | < 1e-05 s⁻¹ | – | – | – | – |
| AUAAAAGCGCCAGUACUACAGAAAUGUAGUUGACGAGGAGGAGGUUUAUCGAAUUUUCGGCGGAUCCCUCCAAA [A14U G66C] | 0.000139 ± 1.3e-05 s⁻¹ | – | – | 5220 ± 1100 µM | 4.36e-05 ± 8e-06 s⁻¹ | 9.18e-05 ± 1e-05 s⁻¹ | – |
| AUAAAAGCGCCAGAUCUACAGAAAUGUAGUUGACGAGGAGGAGGUUUAUCGAAAUUUCGGCGGAUGCCUCCAAA [A15U U54A] | 0.00741 ± 0.001 s⁻¹ | – | 0.00059 ± 0.00026 s⁻¹ | 1360 ± 360 µM | 0.00516 ± 0.0014 s⁻¹ | 0.00623 ± 0.0012 s⁻¹ | 0.00262 ± 0.00048 s⁻¹ |
| AUAAAAGCGCCAGAAUUACAGAAAUGUAGUUGACGAGGAGGAGGUUUAUCGAAUUUUCGGAGGAUGCCUCCAAA [C16U C61A] | 1.08e-05 ± 2.3e-06 s⁻¹ | – | – | – | – | – | – |
| AUAAAAGCGCCAGAACUACAGAAAUGUAGUUCACGAGGAGGAGGUUUAUCGAAUUUUAGGCGGAUGCCUCCAAA [G32C C58A] | 0.000602 ± 8.9e-05 s⁻¹ | – | – | 8220 ± 1700 µM | 0.000139 ± 1.7e-05 s⁻¹ | 0.000333 ± 4.8e-05 s⁻¹ | 4.35e-05 ± 8.2e-06 s⁻¹ |
| AUAAAAGCGCCAGAUCUACAGAAAUGUAGUUGACGAGGAGGAGGUUUAUCGAAUUUUCGGCGGAAGCCUCCAAA [A15U U65A] | 0.000377 ± 6.3e-05 s⁻¹ | – | 6.26e-05 ± 2.2e-05 s⁻¹ | 1080 ± 410 µM | 0.00021 ± 4.1e-05 s⁻¹ | 0.00039 ± 5.6e-05 s⁻¹ | 0.000146 ± 2.3e-05 s⁻¹ |
| AUAAAAGCGCCAGAACUACAGAAAUGUAGUUGACGAGGAGUAGGUUUAUCGAGUUUUCGGCGGAUGCCUCCAAA [G41U A53G] | 0.00129 ± 0.00028 s⁻¹ | 0.000167 ± 2.7e-05 s⁻¹ | 0.000362 ± 7.8e-05 s⁻¹ | 291 ± 120 µM | 0.000959 ± 0.00015 s⁻¹ | 0.00153 ± 0.00029 s⁻¹ | 0.00133 ± 0.0002 s⁻¹ |
| AUAAAAGCGCCAGAACUACAGAAAUGUACUCGACGAGGAGGAGGUUUAUCGAAUUUUCGGCGGAUGCCUCCAAA [G29C U31C] | 0.000387 ± 3.9e-05 s⁻¹ | – | – | 3280 ± 690 µM | 0.000184 ± 3.4e-05 s⁻¹ | 0.000284 ± 4.2e-05 s⁻¹ | 5.78e-05 ± 1.8e-05 s⁻¹ |
